Consider 1 molecule from patent US20230137032A1 (GlaxoSmithKline, published 2023).

Several values for one entry are separate records, joined by “and”; a condition that tells them apart may be missing. Equal entries are not always repeated.

The target in assay [1] is T1, cyno BCMA expressed on HEK293 cells (cyno, UniProt A0A2K5UD97 1-183).
T1 construct: whole, on cells; also called cyno BCMA HEK293
The experiment in a line: FMAT cell binding on HEK293 cells transfected with cyno BCMA, anti-human IgG FMAT Blue detection. Here is the method:
(§1) Cryopreserved transfected human, cyno BCMA and mock transfected HEK293 cells were recovered from LN2 storage. […] The assay plates were left for a minimum of 90 minutes before the result was read on the ABI8200 (FMAT) plate reader.

The target of assay [2] is T2, recombinant human BCMA, in house material (human, UniProt Q02223 4-53, limits assumed).
T2 construct: also called Human in house BCMA; In house human BCMA
Put plainly: ProteOn SPR run 1, antibody captured on Protein A, 25C; Run 1 (Table 8). Here is the method:
The initial screen of CA8 chimeric and humanised variants was carried out on the ProteOn XPR36 (Biorad). The method was as follows; Protein A was immobilised on a GLC chip (Biorad, Cat No: 176-5011) by primary amine coupling, CA8 variants were then captured on this surface and recombinant human BCMA (in house or commercial US Biological, B0410) materials (run 2 only)) passed over at 256, 64, 16, 4, 1 nM with a 0 nM injection (i.e. buffer alone) used to double reference the binding curves, the buffer used is the HBS-EP buffer. 50 mM NaOH was used to regenerate the capture surface. The data was fitted to the 1:1 model using the analysis software inherent to the ProteOn XPR36. […] Both runs were carried out at 25° C.

The target of assay [3] is T3, cyno BCMA-Fc (cyno).
T3 construct: also called Cyno BCMA CD33 cyno BCMA ECD (4-52) TEV-Fc; recombinant cyno BCMA
The experiment in a line: ELISA on coated cyno BCMA-Fc, anti-human IgG HRP, TMB. As for the experimental part: Human BCMA-Fc and cyno BCMA-Fc were coated to ELISA plates and the plates were blocked using BSA to reduce non specific binding. CA8 chimeric antibodies were added in a concentration range from 5 ug/ml to 0.1 ug/ml to the human and cyno BCMA coated ELISA plates. […] HRP substrate (TMB) was added to develop the ELISA.
On the technique in general: In an ELISA, binding on a coated surface is turned into a signal by an enzyme label.

Assay [4] concerns the target T4, human BCMA expressed on cells (human, UniProt Q02223 1-184).
T4 construct: whole, on cells; also called human BCMA HEK293; ARH77-hBCMA 10B5 BCMA expressing transfectant cells
T4 sequence (looked up): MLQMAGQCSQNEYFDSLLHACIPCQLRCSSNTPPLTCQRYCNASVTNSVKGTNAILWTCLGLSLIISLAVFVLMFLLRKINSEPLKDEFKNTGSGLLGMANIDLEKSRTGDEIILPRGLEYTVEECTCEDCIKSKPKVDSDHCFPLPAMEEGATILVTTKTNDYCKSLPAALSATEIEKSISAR
Put plainly: FMAT cell binding on HEK293 cells transfected with human BCMA, anti-human IgG FMAT Blue detection. As for the experimental part: as §1

In assay [5] the target is T5, recombinant human BCMA Fc 4-53 (human).
T5 construct: also called Human BCMA CD33-hBCMA ECD (4-53) TEV-Fc; recombinant BCMA
The experiment in a line: competition ELISA: binding of recombinant human APRIL to coated recombinant human BCMA Fc 4-53, biotinylated anti-APRIL and streptavidin-HRP, % of control. Here is the method:
(§2) 96 well flat bottomed plates were coated overnight with 1 μg/mL solution of recombinant human BCMA Fc 4-53 in PBS. Following a wash step using 0.05% TWEEN20, plates were blocked with 2% Bovine Serum Albumin solution in PBS for 1 hour at room temperature. […] 40 μL of 2% BSA was added to the relevant control wells. […] Equivalent volume of 2% BSA was added to the relevant control wells. Plates were allowed to incubate for 2 hours at room temperature, after which they were washed as before. […] Following a wash step, 50 µL of a 1:4000 dilution of Streptavidin-HRP (Amersham RPN4401) was added to each well and incubated for 30 minutes at room temperature. The wash process was repeated again followed by the addition of […] of Tetramethylbenzidine substrate solution (T8665, Sigma) into each well. Plates were incubated for 20-25 minutes at room temperature, wrapped in foil. The reaction was stopped with the addition of […] of 1M H₂SO₄. Optical density was determined at 450 nm using Spectromax reader.

In assay [6] the target is T4, human BCMA expressed on cells. The experiment in a line: FACS on H929 cells, PE anti-human IgG, MFI. Here is the method:
Cells were then washed with FACS buffer (PBS+0.5% BSA+0.1% sodium azide) to remove unbound antibody. Cells were incubated with a secondary PE labelled anti-human IgG antibody for 15 minutes at RT and then washed with FACS buffer to remove unbound antibody. Cells were analysed by FACS and mean fluorescence intensity (MFI) values measured to determine binding.

Assay [7] concerns the target T6, recombinant cyno BCMA, in house material (cyno, UniProt A0A2K5UD97 4-52).
T6 construct: also called Cyno in house BCMA
Put plainly: ProteOn SPR run 1, antibody captured on Protein A, 25C.

The target in assay [8] is T5, recombinant human BCMA Fc 4-53. The experiment in a line: ELISA, neutralisation of ligand binding to plate-coated BCMA Fc 4-53; competitor BAFF; competitor BAFF. Here is the method:
as §2

For assay [9] the target is unchanged. The experiment in a line: competition ELISA: binding of recombinant human BAFF to coated recombinant human BCMA Fc 4-53, biotinylated anti-BAFF and streptavidin-HRP, % of control. As for the experimental part: as §2
Assay [10] concerns the target T4, human BCMA expressed on cells. The experiment in a line: cell-based or functional assay.
In assay [11] the target is T7, recombinant human BCMA, commercial (US Biological, B0410) (human, UniProt Q02223 5-54, limits assumed).
T7 construct: also called commercial human BCMA; Human commercial BCMA
T7 chain (looked up): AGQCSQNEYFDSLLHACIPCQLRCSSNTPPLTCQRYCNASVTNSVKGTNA
The experiment in a line: Biacore T100, antibody captured on Protein A, 37C, experiment 1. As for the experimental part:
Protein A was immobilised on a CMS chip (GE Healthcare, Cat No: BR-1005-30) by primary amine coupling and this surface was then used to capture the antibody molecules. Recombinant human BCMA (US Biological, B0410) was used as analyte at 256 nM, 64 nM, 16 nM, 4 nM and 1 nM. Regeneration of the capture surface was carried out using 50 mM NaOH. All binding curves were double referenced with a buffer injection (i.e. 0 nM) the data was fitted to the using the 1:1 model inherent to T100 evaluation software. The run was carried out at 25° C. and 37° C. for experiment 1 and only 37° C. for experiment 2 using HBS-EP as the running buffer.
Background: Surface plasmon resonance follows binding to a sensor surface in real time, without labels.

A word on the EC50 (read off the curve): it is the concentration giving half of the maximal effect. Higher therefore signals lower potency in that assay. By Kd is commonly meant the equilibrium constant for the complex coming apart. A word on the EC50: it is the concentration giving half of the maximal effect.

B1: CA8 chimera antibody (human chimeric CA8) (antibody, V domains shown)
VH: EVQLQQSGAVLARPGASVKMSCKGSGYTFTNYWMHWVKQRPGQGLEWIGATYRGHSDTYYNQKFKGKAKLTAVTSTSTAYMELSSLTNEDSAVYYCTRGAIYNGYDVLDNWGQGTLVTVSS
VL: DIQLTQTTSSLSASLGDRVTISCSASQDISNYLNWYQQKPDGTVELVIYYTSNLHSGVPSRFSGSGSGTDYSLTIGYLEPEDVATYYCQQYRKLPWTFGGGSKLEIKR
notes: also called Chimera CA8; CA8 chimeric antibody
As for B1, the entries for the 50% effective concentration (EC50 (read off the curve)) in assay [1], in [4] and in assay [6] were roughly 0.3 µg/mL, roughly 0.4 µg/mL and roughly 0.3 µg/mL, respectively. Moreover, the Kd in assay [2] is 0.519 nM; in assay [7], 0.457 nM; in assay [11], 0.051 nM. Also, the binding result in assay [3] is given as “binds”. Moreover, the “IC50 (read off the curve)” value was roughly 0.8 µg/mL in assay [5] and roughly 0.7 µg/mL in [9]. In addition, the concentration giving a half-maximal response (EC50) in assay [8] was 0.695 µg/mL. For the same molecule, the “APRIL induced IC50 (phosphorylated NFkappaB in H-929 cells, MSD assay)” value in [10] is 38.5 ug/ml and 257 nM. Moreover, the “BAFF induced IC50 (phosphorylated NFkappaB in H-929 cells, MSD assay)” value in assay [10] was 1.5 ug/ml and 10 nM.
